Test results: patent publication US4748122A, “2,5-diketo-D-gluconic acid reductase” (Shionogi & Co., Ltd., priority 1983, dated 1988)
Several values for one entry are separate records, joined by “and”; a condition that tells them apart may be missing. Equal values may be shown once.

What was measured:
[1] = Isoelectric point electrophoresis of the enzyme; format: physicochemical
Method: (10) Isoelectric point: pH 4.4±0.3 (measured by isoelectric point electrophoresis).
Five (5) μl of the enzyme solution was then subjected to isoelectric point electrophoresis (gel; polyacrylamide: conditions of phoresis(a); pH interval 2.5-5; anode electrolyte=0.1M H2 SO4 cathode electrolyte=0.1M NaOH, 6W, 2,700 VH: conditions of phoresis(b); pH interval 4.0-6.5; anode electrolyte=0.04M DL-glutamic acid, cathode electrolyte=0.2M NaOH, 25W, 2,600 VH; temperature, 18°-20° C.) to give a result that the enzyme migrated in a single band at a position which corresponds to pH 4.4±0.2. From the previously-describedfacts, it was confirmed that the purified enzyme solution was one which solely contains 25DKG-Rase.

[2] = pH stability of the enzyme (residual activities after treatment in buffers); format: physicochemical
Method: (determined on the basis of residual activities after treatments in 0.1M dimethylglutaric acid buffer for pH 4-5, in 0.1M Good buffer (PIPES) for pH 6-7 and in 0.1M Tris-HCl buffer for ph 8-9 at 28° C. for 30 minutes). Residual activity of 70% or more is recognized in pH 5-7 while only those of 30% or less are recognized in pH 4 or below, and in pH 8 or above.
Ninety-six (96) % or more of the activity is lost after being stood at pH 4 or below, or pH 8 or above and at 28° C. for 2 hours.

[3] = Optimum pH and range of reaction temperature of the enzyme; format: biochemical
Method: In order to clarify the relation between the reaction velocity of the 25DKG-Rase and pH, the enzymatic activities were measured by using the following buffers in place of the buffer of the reaction system in (5)-(ii).
The results of the measurements of the enzymatic activities on the substrates, Ca-25DKG and 5KF at the respective pHs are shown in Table 4 below.
The reaction velocities in the reaction system of (5)-(ii) which employs the substrate, Ca-25DKG were measured at varying temperatures from 15° to 50° C.
Enzymatic activities of 25DKG-Rases obtained from K-106 and T-13 were measured at varying pH from 4 to 9 (substrate: Ca-25DKG, reaction temperature: 30° C.).

## 2,5-diketo-D-gluconic acid reductase [25DKG-Rase]
[1]
  isoelectric point: 4.4±0.2 pH and 4.4±0.3 pH
[2]; 28° C. for 30 minutes in 0.1M buffers
  pH stability: 5-7 pH
[2]; pH 4 or below, and pH 8 or above, 28° C. for 30 minutes
  Residual activity: ≤ 30%
[2]; pH 4 or below, or pH 8 or above, 28° C. for 2 hours
  activity lost: ≥ 96%
[2]; pH 5-7, 28° C. for 30 minutes
  Residual activity: ≥ 70%
[3]
  optimum pH: 6-7 pH
